Measurements published in paper PMC9925492, “Reduction of phenolics in faba bean meal using recombinantly produced and purified Bacillus ligniniphilus catechol 2,3-dioxygenase” (Bioresources and Bioprocessing, 2023).

Test system: Cc1cccc(O)c1O
Test: purified protein
Details: 10 mM Mn2+, 50 mM phosphate pH 7.5, 32.5 °C

With “BLC23O (Halalkalibacterium ligniniphilum)” the Km was 379 ± 86 µM and the kcat was 0.13 ± 0.01 s⁻¹.
